From PMC4877600

Tested on: human immunoglobulin E (IgE) (Homo sapiens)
Test: fluorescence bead-binding assay (thermal elution)
Details: IgE on beads; selection buffer as printed: 44.5 mM Tris base, 44.5 mM bisboronic acid (sic), 50 mM NaCl, pH 8.5; 0-100 nM DNA, room temperature, 2 h; IgE beads 3x10^4 per …

Row | Sequence | Kd
1 | GCCTGTTGTGAGCCTCCTGTCGAAACTAGACCGGGAGCAAAACGGCAGATTGGGGCAAGGCCGGTTGAGCGTTTATTCTTGTCTCCC [SIGE7] | 0.018 µM
2 | GCCTGTTGTGAGCCTCCTGTCGAAGATGTAGGCCATCCTGTGGGGGTACGGGGCGGGCTGTGGTTTGAGCGTTTATTCTTGTCTCCC [SIGE5] | 0.01 µM
